± gives the standard deviation of the averaged measurements.
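Note: ATP exposure 15 min at 22 °C before imaging.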

The series concerns ATP. Description: switch fluorescence ratio, 500 uM ATP over buffer (Cy3 cluster intensity, sum of 5 cycles each) (fold (ratio)); higher = stronger signal-on switching upon ATP binding; sequences stand for … in TCGTCGGCAGCGTCAGATGTGTATAAGAGACAGTTTTTTTTTTTTTTTTTTTTTTTTT…TC. To be noted: aptamer strand: ATP DNA aptamer (quencher-CACCTGGGGGAGTATTGCGGAGGAAGG + anchor), 100 nM annealed; ATP concentration: 500 uM. The method, boiled down: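 The fluorescence ratio divides summed target-cycle Cy3 intensity by summed buffer-cycle Cy3 intensity for each cluster and is averaged per switch-domain sequence. Cy3-labelled switching-strand clusters on a modified Illumina MiSeq flow-cell were annealed to 100 nM quencher-labelled ATP aptamer, then imaged in selection buffer and again after 15 min with 500 uM ATP at 22 °C. Five such cycles were run, with NaOH stripping and re-annealing between them, and clusters outside 100-1000 RFU were excluded.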
As for GAAGTAGTTA, the switch fluorescence ratio came out at 1.006 ± 0.0082.
The figure for ATGAGGGGGG is 0.986 ± 0.031; for GGTCATGACG it is 0.923 ± 0.046; for TGTGGTATGC it is 1.01 ± 0.057.
With GTTGGCGGGT, the switch fluorescence ratio was 1 ± 0.017.
As to GTTGTATACT, the switch fluorescence ratio was found to be 0.993 ± 0.076.
The same measure for GGGTTAGGGT: 0.991 ± 0.049; for GAGGTAATC: 1.02 ± 0.037.
Take AATCTTGAGG: the switch fluorescence ratio came to 1.01 ± 0.028.
As for TTTTTTAAAG, the switch fluorescence ratio stood at 0.99843 ± 0.00078.
With TAAAGGGGAG, the switch fluorescence ratio is 1.01 ± 0.019.
For the sequence TGCGAATTGT, the switch fluorescence ratio worked out at 1.01 ± 0.012.
With TCGAACCGAG, the switch fluorescence ratio came out at 1.2 ± 0.024.
The same measure for ATTAAGAGTA: 0.961 ± 0.012; for CGTAGGGGGT: 1.01 ± 0.03; for TTAACTTCGG: 0.9712 ± 0.0059.
For ATCACGGGAA, the switch fluorescence ratio worked out at 1.055 ± 0.0074.
The figure for GGAATAGAGT is 1.02 ± 0.021; for GGGAACACGA it is 1.01 ± 0.018; for TTAATAAGAC it is 1.04 ± 0.054.
The figure for TACAGTCAAC is 1.06 ± 0.041; for GTTTGTACTC it is 0.997 ± 0.037; for GAATTAAACG it is 1.02 ± 0.024.
The same measure for TAGATTCGTT: 0.9907 ± 0.0071; for GCATAGTGGT: 1.008 ± 0.01.
In the case of GATCGGGGTG, the switch fluorescence ratio turned out to be 0.965 ± 0.021.
The same measure for CATCCTTTTA: 1.054 ± 0.0037; for AGGTGCTTGG: 0.997 ± 0.026.
The same measure for TATTAGGTA: 1.01 ± 0.017; for CCTTGGTACA: 1.03 ± 0.015; for ATGAAGCAGG: 1.15 ± 0.058.
With ACGGGTTGTC, the switch fluorescence ratio amounted to 0.981 ± 0.11.
The figure for TTAAAATGAG is 0.9972 ± 0.006; for AAAACTTTAC it is 1.2918 ± 0.00043; for TAGTGGGAGA it is 1.03 ± 0.029.
The same measure for TACGAAGGGG: 1.02 ± 0.018.
The figure for TCAAAGAGGT is 0.98204 ± 0.00058; for TCTTGCTTC it is 1.0084 ± 0.00091; for GCTCGAGATT it is 1.026 ± 0.0027.
Consider AGGCGGGAGG, for which the switch fluorescence ratio was 1.034 ± 0.0056.
The figure for GTTTAAGTTT is 0.996 ± 0.022.
The same measure for GTGGAGAAAT: 1.04 ± 0.047; for GGATTTGGCG: 0.985 ± 0.029.
As to GGGGTACGAT, the switch fluorescence ratio was found to be 1.02 ± 0.027.
The figure for ATCATTAACT is 1.02 ± 0.013.
GGGTGCAGCG: the switch fluorescence ratio worked out at 0.993 ± 0.03.
GCGATACTGT: the switch fluorescence ratio was 3.08 ± 0.17.
With AGTTTAAAAG, the switch fluorescence ratio was 1.01 ± 0.024.
Regarding AAATTGAAAT, the switch fluorescence ratio was determined as 1.01 ± 0.031.
The same measure for TTTTTAGGAG: 1 ± 0.035.
CGTTAAGCTT: the switch fluorescence ratio turned out to be 1.03 ± 0.014.
The figure for AGGATGGTGG is 1.02 ± 0.037; for GAAGGCACGG it is 1.04 ± 0.047.
For AAAATCGCTT, the switch fluorescence ratio came out at 1.01 ± 0.065.
CTGCACCATG: the switch fluorescence ratio turned out to be 1.01 ± 0.028.
The figure for CGTTCATGCG is 0.99 ± 0.032; for CATAAGATCC it is 0.994 ± 0.025; for AAATTGCTGT it is 1.012 ± 0.0069.
On to GAACTCTTGT, for which the switch fluorescence ratio came out at 1.05 ± 0.096.
The figure for CTGTCATTTG is 0.985 ± 0.03; for GGCCCAGTAG it is 1.14 ± 0.062; for CCGAAACTTG it is 1.07 ± 0.038.
The same measure for GACTTTTATA: 0.996 ± 0.026.
The same measure for TACGTTGCAA: 1.22 ± 0.015.
TGTTTCTGG: the switch fluorescence ratio was determined as 0.996 ± 0.036.
As for CATGAGTTGG, the switch fluorescence ratio turned out to be 0.966 ± 0.041.
The same measure for GCGACGTTGC: 0.999 ± 0.036; for ACGATCTTGC: 1.02 ± 0.035.
The same measure for AAAGGGGTAC: 1.04 ± 0.016; for GTGAGGTTTT: 0.985 ± 0.021.
Consider AAATGAGGGG, for which the switch fluorescence ratio amounted to 0.992 ± 0.03.
In the case of TTAGGGGAAA, the switch fluorescence ratio was found to be 1.03 ± 0.066.
The same measure for GGTGGGTGCA: 0.985 ± 0.036.
As to CATAAGTTAT, the switch fluorescence ratio stood at 1.02 ± 0.02.
As for AGGATGTGAC, the switch fluorescence ratio is 1.01 ± 0.02.
In the case of TTTTTCATCC, the switch fluorescence ratio stood at 1.18 ± 0.31.
Regarding GTATTAGCTG, the switch fluorescence ratio was determined as 0.974 ± 0.0089.
The figure for GGGGATGATG is 0.9683 ± 0.0046.
With TGAAGATATA, the switch fluorescence ratio turned out to be 0.99 ± 0.015.

These data come from the supplement of paper PMC10126150.
